Assay results published in article PMC8972186.

What was measured:
[1] = biological target: dynamic microtubules grown from purified bovine brain tubulin (bovine) (UniProt Q6B856); assay: optical trap force clamp assay
[2] = biological target: dynamic microtubules grown from purified bovine brain tubulin (bovine) (UniProt Q6B856); assay: optical trap rupture force assay

wild-type Ndc80 complex (from UniProt P40460 1-691; P33895 1-451; Q04477 1-213; P40014 1-221)
percent of beads tracking with shortening microtubule tips under 1.5 pN [1]: 7% | median rupture strength [2]: 3.2 pN
